This note sets out measurements from patent publication US20250289888A1 (GIGAGEN, published 2025).

Assay [1] has as its target human CTLA-4 expressed on cells (human, UniProt P16410 36-223). Kind of assay: cell-based or functional assay.
The target in a further assay is T1, mouse CTLA-4 (mouse, UniProt P09793 36-162, limits assumed).
T1 construct: antigen of the anti-mouse CTLA-4 BLI measurements; also called murine CTLA-4
Nature of the assay: BLI (Octet), captured mAb, soluble mouse CTLA-4. The method, then: The binding specificity and affinity of each full-length antibody towards CTLA-4 were determined using biolayer interferometry (BLI) and/or surface plasmon resonance (SPR). Anti-cyno CTLA-4 and anti-mouse CTLA-4 affinities were tested using ForteBio (BLI). Anti-human CTLA-4 affinities were measured using Carterra (SPR).
For BLI, antibodies were loaded onto an Anti-Human IgG Fc (AHC) biosensor using the Octet Red96 system (ForteBio). Loaded biosensors were dipped into antigen dilutions beginning at 300 nM, with 6 serial dilutions at 1:3. Kinetic analysis was performed using a 1:1 binding model and global fitting.
Background: In BLI a coated tip is dipped into the sample, and binding shifts an interference pattern.

The target of assay [2] is T2, recombinant human CTLA-4-Fc (human, UniProt P16410 36-162).
T2 construct: bought Fc chimera; also called rhCTLA-4-Fc; rhCTLA-4-Fc chimera; Fc part of the bought chimera not given
Kind of assay: blocking ELISA: plate-bound rhCTLA-4-Fc, mAb titrated, rhCD86-His binding detected. As to the method:
(§1) Plates were coated with rhCTLA-4-Fc and then blocked with 1×PBST with 5% w/v nonfat dry milk. After blocking a dilution series of the indicated antibody was added to the plate.
In general terms: In an ELISA, binding on a coated surface is turned into a signal by an enzyme label.

The target in assay [3] is T2, recombinant human CTLA-4-Fc. Kind of assay: blocking ELISA: plate-bound rhCTLA-4-Fc, mAb titrated, rhCD80-His binding detected. As to the method:
as §1

Residue numbers refer to the chain shown, from its start.

T2 sequence (P16410 36-162): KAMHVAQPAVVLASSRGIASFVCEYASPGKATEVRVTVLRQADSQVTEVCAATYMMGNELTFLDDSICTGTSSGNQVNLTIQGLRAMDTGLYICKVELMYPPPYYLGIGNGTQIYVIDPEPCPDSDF
Sequence of human CTLA-4 expressed on cells (P16410 36-223 limits assumed): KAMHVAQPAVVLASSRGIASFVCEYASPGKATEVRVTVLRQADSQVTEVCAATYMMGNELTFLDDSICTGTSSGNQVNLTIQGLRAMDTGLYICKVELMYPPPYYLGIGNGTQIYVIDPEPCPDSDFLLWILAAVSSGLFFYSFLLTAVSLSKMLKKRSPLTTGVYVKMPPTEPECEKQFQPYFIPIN

B1: antibody A9 (antibody, human IgG1, V domains shown)
VH: QVQLVESGGGVVQPGRSLRLSCAASGFTFSSHGMHWVRQAPGKGLEWVAVIWYDGSNKHYADSVKGRFTISRDNSKNTLYLQMNSLRAEDTAVYYCARGDILTGYYGYWGQGTLVTVSS
VL: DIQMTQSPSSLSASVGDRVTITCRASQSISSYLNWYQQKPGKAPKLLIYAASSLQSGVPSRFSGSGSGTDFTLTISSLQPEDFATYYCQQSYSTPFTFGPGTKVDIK
notes: full-length human IgG1 (CHO); also called aCTLA-4.24; L9H9
For B1, the “Promega assay antagonist (EC50. ug/mL)” value in assay [1] is 0.19 µg/mL. For the same molecule, the binding result with mouse CTLA-4 is “no binding (tested: antigen dilutions beginning at 300 nM)”.

B2: antibody A6 (antibody, human IgG1, V domains shown)
VH: QVQLVESGGGVVQPGRSLRLSCAASGFTFSSYGMHWVRQAPGKGLEWVAVIWYDGSYKYYADSVKGRFTISRDDSKNTLYLQMSSLRAEDTAVYYCARAPHYAILTGYYEDYWGQGTLVTVSS
VL: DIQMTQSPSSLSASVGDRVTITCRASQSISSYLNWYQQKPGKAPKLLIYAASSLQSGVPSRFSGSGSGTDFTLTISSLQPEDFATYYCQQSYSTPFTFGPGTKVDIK
Regarding B2, the “Promega assay antagonist (EC50. ug/mL)” value in assay [1] is 0.18 µg/mL.

B3: antibody A2 (antibody, human IgG1, V domains shown)
VH: QVQLVESGGGVVQPGRSLRLSCAASGFTFSNYGMNWVRQAPGKGLEWVAVIWYDGRNKHYADSVKGRFTISRDNSKNTLYLQMNSLRAEDTAVYYCARGGDWGPYFDYWGQGTLVTVSS
VL: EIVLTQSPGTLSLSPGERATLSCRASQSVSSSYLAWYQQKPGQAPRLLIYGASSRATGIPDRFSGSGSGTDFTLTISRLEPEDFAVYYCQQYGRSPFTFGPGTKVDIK
notes: full-length human IgG1 (CHO); also called aCTLA-4.4; CTLA4.A2
As to B3, in assay [1], the “Promega assay antagonist (EC50. ug/mL)” value was 0.12 µg/mL. Also, in assay [2], the CD86% inhibition was 91.5%. For the same molecule, in assay [3], the CD80% inhibition came to 95.4%. The binding result with mouse CTLA-4 is listed as “no binding (tested: antigen dilutions beginning at 300 nM)”.

B4: antibody A13 (antibody, human IgG1, V domains shown)
VH: B3 VH with N31S, N35H, H59D, F68I, D101L, W102L
VL: not shown
In the case of B4, the “Promega assay antagonist (EC50. ug/mL)” value in assay [1] came to 0.09 µg/mL.

B5: antibody A3 (antibody, human IgG1, V domains shown)
VH: B3 VH with A23I, N31S, N35H, I51N, R56S, D101V
VL: not shown
notes: full-length human IgG1 (CHO); also called aCTLA-4.2; L3H3
B5: the “Promega assay antagonist (EC50. ug/mL)” value in assay [1] amounted to 0.18 µg/mL. Besides, the binding result with mouse CTLA-4 is listed as “no binding (tested: antigen dilutions beginning at 300 nM)”.

B6: antibody A5 (antibody, V domains shown)
VH: QVQLVESGGGVVQPGRSLRLSCAASGFTFSSYGMHWVRQAPGKGLEWVAVIWYDGNNKYYADSVKGRFTISRDNSKNTLYLQMYSLRAEDTAVYYCARGGILAAGIFDYWGQGTLVTVSS
VL: EIVLTQSPGTLSLSPGDRATLSCRASQSGSSSYLAWYQQKPGQAPRLLIYGASSRATGIPDRFSGSGSGTDFTLTISRLEPEDFAVYYCQQYGTSPFTSGPGTKVDIK
notes: full-length human IgG1 (CHO); also called aCTLA-4.28; CTLA4.A5
For the molecule B6, the “Promega assay antagonist (EC50. ug/mL)” value in assay [1] came out at 0.18 µg/mL. Moreover, the CD86% inhibition in assay [2] was determined as 90.6%. In assay [3], the CD80% inhibition came to 96.3%.

B7: antibody A1 (antibody, human IgG1, V domains shown)
VH: QVQLVESGGGVVQPGRSLRLSCAASGFTFSSFGMHWVRQAPGKGLEWVAVIWYDGRNKYYVDSVKGRFTISRDNSNNTLYLQMNSLRAEDTAVYYCARGEFFGEFFDYWGQGTLVTVSS
VL: B6 VL with D17E, R18G, G29F, S32N, S99F
B7: the “Promega assay antagonist (EC50. ug/mL)” value in assay [1] was determined as 0.13 µg/mL.

B8: antibody A4 (antibody, V domains shown)
VH: QVQLVESGGGVVQPGRSLRISCAASGFTFSSYGIHWVRQAPGKGLQWVAVIWYDGRNKYYADSVKGRFTISRDNSKNTLYLQMNSLRAEDTAVYYCSRSGSFGAFDIWGQGTMVTVSS
VL: B6 VL
notes: full-length human IgG1 (CHO); also called aCTLA-4.29; L4H4
Regarding B8, in assay [1], the “Promega assay antagonist (EC50. ug/mL)” value was 0.15 µg/mL. Moreover, in the assay with mouse CTLA-4, the binding result was “no binding (tested: antigen dilutions beginning at 300 nM)”.

B9: antibody A7 (antibody, human IgG1, V domains shown)
VH: QVQLVESGGGVVQPGRSLRLSCAASGFTLSSFGMHWVRQAPGKGLEWVAVIWYDGSNKYYADSVKGRFIISRDNSKTALYLQMNSLRAEDTAVYYCARAHYFGAFDIWGQGTMVTVSS
VL: not shown
notes: full-length human IgG1 (CHO); also called aCTLA-4.3; CTLA4.A7
Turning to B9, the “Promega assay antagonist (EC50. ug/mL)” value in assay [1] came out at 0.17 µg/mL. For the same molecule, in assay [2], the CD86% inhibition is 78.8%. Also, the CD80% inhibition in assay [3] worked out at 92.1%. Further, the binding result with mouse CTLA-4 is recorded as “no binding (tested: antigen dilutions beginning at 300 nM)”.

B10: antibody A10 (antibody, human IgG1, V domains shown)
VH: QVQLVESGGGVVQPGRSLRLSCVASGFTLSSYGMHWVRQAPGKGLEWVAVIWYDGSNKHYADSVKGRFTISRDNSKNTLSLQMNSLRAEDTAVYYCARGGQLGPFDYWGQGTLVTVSS
VL: not shown
notes: full-length human IgG1 (CHO); also called aCTLA-4.22; L10H10
Consider B10, for which the “Promega assay antagonist (EC50. ug/mL)” value in assay [1] is 0.26 µg/mL. In addition, in the assay with mouse CTLA-4, the binding result is given as “no binding (tested: antigen dilutions beginning at 300 nM)”.

B11: Ipilimumab analog (antibody, human IgG1, V domains shown)
VH: QVQLVESGGGVVQPGRSLRLSCAASGFTFSSYTMHWVRQAPGKGLEWVTFISYDGNNKYYADSVKGRFTISRDNSKNTLYLQMNSLRAEDTAIYYCARTGWLGPFDYWGQGTLVTVSSA
VL: not shown
notes: also called Ipi analog; in-house produced ipilimumab
B11: the binding result with mouse CTLA-4 is listed as “no binding (tested: antigen dilutions beginning at 300 nM)”.

B12: antibody A8 (antibody, human IgG1, V domains shown)
VH: B10 VH with V23A, L29F, S31R, S56R, H59Y, S80Y, V93L, Y95S, G99A, Q101E
VL: EIVLTQSPGTLSLSPGERATLSCRASQSVSYLAWYQQKPGQAPRLLIYGASSRATGIPDRFSGSGSGTDFTLTISRLEPEDFAVYYCQQYGSSPWTFGQGTKVEIK
notes: full-length human IgG1 (CHO); also called aCTLA-4.1; CTLA4.A8
B12: the “Promega assay antagonist (EC50. ug/mL)” value in assay [1] came to 0.15 µg/mL. The binding result with mouse CTLA-4 is listed as “no binding (tested: antigen dilutions beginning at 300 nM)”.

B13: GIGA-564 (antibody, V domains shown)
VH: QVQLVESGGGVVQPGRSLRLSCAASGFTFSSYGMHWVRQAPGTGLEWVAVIWYEGRNKYYADPVKGRFTISRDNSKNTLYLQMNSLRDDDTAVYYCARAGDLGAFDIWGQGTMVTVSSA
VL: not shown
notes: fucosylation differs between lots (77-95 %); also called antibody A14; aCTLA-4.15
For B13, the CD86% inhibition in assay [2] stood at 54.5%.

B14: antibody A11 (antibody, human IgG1, V domains shown)
VH: QVQLVESGGGVVQPGRSLRLSCAASGFTFSSYGMHWVRQAPGKGLEWVAVIWYDVGNKYYIDSVKGRFTISRDNSKNTLYLQMNSLRAEDTAVYYCARDYYGSGSPRHFDYWGQGTLVTVSS
VL: DIQLTQSPSFLSASVGDRVTITCRASQGISSYLAWYQQKPGKAPKLLIYAASTLQSGVPSRFSGSGSGTEFTLTISSLQPEDFATYYCQQLNSYPPTFGQGTKVEIK
notes: full-length human IgG1 (CHO); also called aCTLA-4.31; L11H11
As to B14, the “Promega assay antagonist (EC50. ug/mL)” value in assay [1] is 0.42 µg/mL. Besides, the binding result in the assay with mouse CTLA-4 was “no binding (tested: antigen dilutions beginning at 300 nM)”.
